Data taken from PMC3143201 (Journal of molecular biology, 2011).

Target: the molecule itself
Assay: SEC

B1: human Hsp90α full-length protein with part of the charged linker between N and M removed (Hsp90Δ) (natural protein)
chain: not shown
Q: How did the “stoichiometry N” value turn out when B1 was run?
A: 2

B2: human Hsp90α MC two-domain construct (domain or fragment)
chain: not shown
Q: For B2, which “stoichiometry N” value is on record?
A: 2
